As a reminder, the Kd is the free concentration of one partner at which half of the binding sites on the other are occupied at equilibrium, for simple one-to-one binding. Low values mean higher affinity, high ones lower affinity.

In patent US20090221680, “Aptamers that bind thrombin with high affinity” (published 2009) one finds activity, binding signal and Kd data, which are given here for 20 molecules.

In the first data set the target is thrombin (endogenous, clotting assay in plasma or whole blood) (Homo sapiens, UniProt P00734;P00734 P00734:328-363,P00734:364-622). The data set can be described thus: inhibition; ACT at 10 uM.
Conditions: not given
In the case of ACTGCCTAGGTTGGTGTGGTTGGTGGCAGT (ssDNA) [ARC2184], the activity amounted to 368 s.

In turn, ACCTCAGGGATGGTGTGGGTGGCTGAGGT (ssDNA) [ARC2173] showed an activity of 415 s.

CCTCAGGGTTGGTGTGGTTGGCTGAGG (ssDNA) [ARC2183]: the activity is 354 s.

Molecule ACTACCTCAGGGATGGTGTGGGTGGCTGAGGTAGT (ssDNA) [ARC2176] returned an activity of 394 s.

As to CTAACTGCCTAGGTTGGGTAGGGTGGTGGCAGTTAG (ssDNA) [ARC2180], the activity was 516 s.

Turning to CTACCTCAGGGATGGTGTGGGTGGCTGAGGTAG (ssDNA) [ARC2175], the activity came to 392 s.

Turning to CCTCAGGGATGGTGTGGGTGGCTGAGGTTT (ssDNA) [ARC2185], the activity was 384 s.

Molecule TAACTGCCTAGGTTGGGTAGGGTGGTGGCAGTTA (ssDNA) [ARC2179] showed an activity of 462 s.

Regarding ACTAACTGCCTAGGTTGGGTAGGGTGGTGGCAGTTAGT (ssDNA) [ARC2181], the activity turned out to be 478 s.

AACTGCCTAGGTTGGGTAGGGTGGTGGCAGTT (ssDNA) [ARC2178] had an activity of 429 s.

The molecule CCTCAGGGATGGTGTGGGTGGCTGAGGTTTTTT (ssDNA) [ARC2186] came in with an activity of 408 s.

Turning to GACTACCTCAGGGATGGTGTGGGTGGCTGAGGTAGTC (ssDNA) [ARC2177], the activity was 401 s.

In the case of TACCTCAGGGATGGTGTGGGTGGCTGAGGTA (ssDNA) [ARC2174], the activity stood at 416 s.

GACTAACTGCCTAGGTTGGGTAGGGTGGTGGCAGTTAGTC (ssDNA) [ARC2182] yielded an activity of 518 s.

The target of the next data set is T1, thrombin (alpha-thrombin) (Homo sapiens, UniProt P00734;P00734 P00734:315-363,P00734:364-622). The data set can be described thus: filter; 10 nM thrombin.
Conditions: not given
Consider TCCCGTAATCGAGCCTGGTATTGTTGGCCTGGGTGGCTGAGGATCGATC (ssDNA) [AMX(395)_A11], for which the binding signal worked out at 35.8 % bound.

For another data set, the target named is prothrombin (Homo sapiens, UniProt P00734 P00734:44-622). The data set is described as follows: filter; 50 nM prothrombin. The note with it: tags: Athens Research. In outline: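 Trace 5′-³²P-labeled RNA clones incubated ±50 nM prothrombin with 0.1 mg/ml BSA in 1×DPBS (with Ca²⁺/Mg²⁺), 30 min. Bound RNA captured on nitrocellulose, free RNA on nylon; filters quantified by phosphorimaging. Single-point screen.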
On to TCCGATTGACGTGGTGGGTTACTGGTTTGGGTGGCTGAGGATCGATC (ssDNA) [AMX(398)_A1], for which the binding signal was 18 % bound.

TCCCAATCGGTCCTGGTAATATATTGGTCGGGGTGGCTGAGGATCGATC (ssDNA) [AMX(399)_H3] returned a binding signal of 45.5 % bound.

For the molecule TCCCTAGATCGGGTCCTGGTAGTGTTTCTGGGTGGCTGAGGATCGATC (ssDNA) [AMX(399)_F5], the binding signal worked out at 49.3 % bound.

In turn, TCCTGAGGGATCAGGCTAGGTTGGGTAGGGTGGTGGCTGAGGATCGATC (ssDNA) [AMX(398)_C8 (ARC2027)] registered a binding signal of 48.5 % bound.

In the case of TCCCGTTCGAGTCCTGGTGTTTTATTGGCCTGGGTGGCTGAGGATCGATC (ssDNA) [AMX(399)_D5], the binding signal is 23.8 % bound.

The target of the next data set is T1, thrombin (alpha-thrombin). The data set is described as follows: filter; DPBS Ca2+ Mg2+, 0.1 mg/ml BSA.
Conditions: not given
Consider TCCGATTGACGTGGTGGGTTACTGGTTTGGGTGGCTGAGGATCGATC (ssDNA) [AMX(398)_A1], for which the affinity, expressed as Kd, was 0.3 nM.

Turning to TCCCAATCGGTCCTGGTAATATATTGGTCGGGGTGGCTGAGGATCGATC (ssDNA) [AMX(399)_H3], binding was put at a Kd of 1.93 nM. This Kd is about 6.4-fold higher than that of the molecule before.

Molecule TCCCTAGATCGGGTCCTGGTAGTGTTTCTGGGTGGCTGAGGATCGATC (ssDNA) [AMX(399)_F5] gave an equilibrium dissociation constant (Kd) of 2.35 nM. This Kd and that of the molecule before are within 1.5-fold of each other.

For TCCTGAGGGATCAGGCTAGGTTGGGTAGGGTGGTGGCTGAGGATCGATC (ssDNA) [AMX(398)_C8 (ARC2027)], the Kd was 0.42 nM.

In turn, TCCCGTTCGAGTCCTGGTGTTTTATTGGCCTGGGTGGCTGAGGATCGATC (ssDNA) [AMX(399)_D5] had a Kd of 2.26 nM.
